This note sets out measurements from article PMC11272775, “Epigenetic memory is governed by an effector recruitment specificity toggle in Heterochromatin Protein 1” (Nature Communications, 2024).

The subject of this series is Swi6-Y (Swi6-T278Y) (Schizosaccharomyces pombe). Nature of the series: EMSA. The following applies: 20 mM Hepes pH 7.5, 4 mM Tris, 80 mM KCl, 0.1% Igepal CA-630, 0.2 mM EDTA, 2 mM DTT, 10% glycerol, 10 nM mononucleosome, 30 °C 45 min, 6% acrylamide 0.5x TBE …. Background: Mobility shift assays separate free from complexed probe on a gel.

Consider H3K9me0 mononucleosome, for which the binding signal (fold weaker than H3K9me3) (H3K9me0 histone, unmodified H3 (H3K9me0)) came out at 2.3.
In the case of H3K9me3 mononucleosome, the K half (H3K9me3 histone, histone H3K9me3 (DNA unmodified)) turned out to be 39 nM.
